Results: IntAct's records for PubMed 19940246

B1: Sigma-O factor regulatory protein RsoA (Bacillus subtilis), C0H3R4 (parent)
chain: MDGQFEQKKKQKDETYDIEHLIACFSPMIRKKLSNTSYQEREDLEQELKIKMFEKADMLLCQDVPGFWEFILYMVDENS
B2: DNA-directed RNA polymerase subunit beta (Bacillus subtilis), P37870 (parent)
chain: MTGQLVQYGRHRQRRSYARISEVLELPNLIEIQTSSYQWFLDEGLREMFQDISPIEDFTGNLSLEFIDYSLGEPKYPVEESKERDVTYSAPLRVKVRLINKETGEVKDQDVFMGDFPIMTDTGTFIINGAERVIVSQLVRSPSVYFSGKVDKNGKKGFTATVIPNRGAWLEYETDAKDVVYVRIDRTRKLPVTVLLRALGFGSDQEILDLIGENEYLRNTLDKDNTENSDKALLEIYERLRPGEPPTVENAKSLLDSRFFDPKRYDLANVGRYKINKKLHIKNRLFNQRLAETLVDPETGEILAEKGQILDRRTLDKVLPYLENGIGFRKLYPNGGVVEDEVTLQSIKIFAPTDQEGEQVINVIGNAYIEEEIKNITPADIISSISYFFNLLHGVGDTDDIDHLGNRRLRSVGELLQNQFRIGLSRMERVVRERMSIQDTNTITPQQLINIRPVIASIKEFFGSSQLSQFMDQTNPLAELTHKRRLSALGPGGLTRERAGMEVRDVHYSHYGRMCPIETPEGPNIGLINSLSSYAKVNRFGFIETPYRRVDPETGKVTGRIDYLTADEEDNYVVAQANARLDDEGAFIDDSIVARFRGENTVVSRNRVDYMDVSPKQVVSAATACIPFLENDDSNRALMGANMQRQAVPLMQPEAPFVGTGMEYVSGKDSGAAVICKHPGIVERVEAKNVWVRRYEEVDGQKVKGNLDKYSLLKFVRSNQGTCYNQRPIVSVGDEVVKGEILADGPSMELGELALGRNVMVGFMTWDGYNYEDAIIMSERLVKDDVYTSIHIEEYESEARDTKLGPEEITRDIPNVGEDALRNLDDRGIIRIGAEVKDGDLLVGKVTPKGVTELTAEERLLHAIFGEKAREVRDTSLRVPHGGGGIIHDVKVFNREDGDELPPGVNQLVRVYIVQKRKISEGDKMAGRHGNKGVISKILPEEDMPYLPDGTPIDIMLNPLGVPSRMNIGQVLELHMGMAARYLGIHIASPVFDGAREEDVWETLEEAGMSRDAKTVLYDGRTGEPFDNRVSVGIMYMIKLAHMVDDKLHARSTGPYSLVTQQPLGGKAQFGGQRFGEMEVWALEAYGAAYTLQEILTVKSDDVVGRVKTYEAIVKGDNVPEPGVPESFKVLIKELQSLGMDVKILSGDEEEIEMRDLEDEEDAKQADGLALSGDEEPEETASADVERDVVTKE
partner: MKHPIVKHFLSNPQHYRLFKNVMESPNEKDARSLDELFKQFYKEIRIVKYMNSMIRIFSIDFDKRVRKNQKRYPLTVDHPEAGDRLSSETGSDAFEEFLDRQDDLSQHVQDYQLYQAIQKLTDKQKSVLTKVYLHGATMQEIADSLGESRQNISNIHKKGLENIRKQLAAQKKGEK

Variants of: B1
Details: with rpoc_bacsu rpoC

Row | Variant | effect of a mutation on the interaction
1 | L44E | decreasing interaction strength
2 | L44A | decreasing interaction strength
3 | Q46E | decreasing interaction strength
4 | Q46A | decreasing interaction strength
5 | R41A | decreasing interaction
6 | D43N | decreasing interaction strength
7 | D43A | decreasing interaction strength

Variants of: B2
Details: with sigo_bacsu sigO

Row | Variant | effect of a mutation on the interaction
8 | F865K | decreasing interaction
9 | I864K | disrupting interaction
